B1: FcγRIIA/RIA-CH6 (soluble hybrid receptor: first Ig domain of FcγRIIA followed by second and third Ig domains of FcγRIA, C-terminal six His tag) (receptor)
chain: AAPPKAVLKLEPPWINVLQEDSVTLTCQGARSPESDSIQWFHNGNLIPTHTQPSYRFKANNNDSGEYTCQTGQTSLSDPVHLTVLSEWLLLQVSSRVFTEGEPLALRCHAWKDKLVYNVLYYRNGKAFKFFHWNSNLTILKTNISHNGTYHCSGMGKHRYTSAGISVTVKELFPAPVLNASVTSPLLEGNLVTLSCETKLLLQRPGLQLYFSFYMGSKTLRGRNTSSEYQILTARREDSGLYWCEAATEDGNVLKRSPELELQVLGGSGGHHHHHH
B2: untagged recombinant soluble human FcγRIA (receptor)
chain: QVDTTKAVITLQPPWVSVFQEETVTLHCEVLHLPGSSSTQWFLNGTATQTSTPSYRITSASVNDSGEYRCQRGLSGRSDPIQLEIHRGWLLLQVSSRVFTEGEPLALRCHAWKDKLVYNVLYYRNGKAFKFFHWNSNLTILKTNISHNGTYHCSGMGKHRYTSAGISVTVKELFPAPVLNASVTSPLLEGNLVTLSCETKLLLQRPGLQLYFSFYMGSKTLRGRNTSSEYQILTARREDSGLYWCEAATEDGNVLKRSPELELQVLG
modifications: N-terminal pyro-glutamic acid, converted from the glutamine at position 16
B3: FcγRIIIA/RIA-CH6 (soluble hybrid receptor: first Ig domain of FcγRIIIA followed by second and third Ig domains of FcγRIA, C-terminal six His tag) (receptor)
chain: EDLPKAVVFLEPQWYRVLEKDSVTLKCQGAYSPEDNSTQWFHNESLISSQASSYFIDAATVDDSGEYRCQTNLSTLSDPVQLEVHIGWLLLQVSSRVFTEGEPLALRCHAWKDKLVYNVLYYRNGKAFKFFHWNSNLTILKTNISHNGTYHCSGMGKHRYTSAGISVTVKELFPAPVLNASVTSPLLEGNLVTLSCETKLLLQRPGLQLYFSFYMGSKTLRGRNTSSEYQILTARREDSGLYWCEAATEDGNVLKRSPELELQVLGGSGGHHHHHH

These binders were tested against rabbit polyclonal anti-OVA antibodies (assay: cell-based or functional assay).

Row | Binder | IC50 (read off the curve); MCP-1 secretion by MC/9 mast cells stimulated with anti-OVA/OVA immune complexes [pmol]
1 | B1 | ~2
2 | B2 | ~2
3 | B3 | ~2

Target: rabbit polyclonal anti-OVA antibodies
Test: cell-based or functional assay
Remark: another data set of the same source

Row | Binder | IC50 (read off the curve); TNF-α secretion by MC/9 mast cells stimulated with anti-OVA/OVA immune complexes [pmol]
4 | B1 | ~2
5 | B2 | ~1
6 | B3 | ~1

Target: rabbit polyclonal anti-OVA antibodies
Test: cell-based or functional assay
Remark: another data set of the same source

Row | Binder | IC50 (read off the curve); IL-6 secretion by MC/9 mast cells stimulated with anti-OVA/OVA immune complexes [pmol]
7 | B1 | ~2
8 | B2 | ~1
9 | B3 | ~2

Target: rabbit polyclonal anti-OVA antibodies
Test: cell-based or functional assay
Remark: another data set of the same source

Row | Binder | IC50 (read off the curve); IL-13 secretion by MC/9 mast cells stimulated with anti-OVA/OVA immune complexes [pmol]
10 | B1 | ~2
11 | B2 | ~1
12 | B3 | ~1

From patent US20110217291A1 (ZymoGenetics, published 2011)
